Results reported in the Human Domainome abundance scans (Beltran et al. 2025).

B1: Friend leukemia integration 1 transcription factor, residues 116 to 197; numbered along this chain, Q01543 (parent)
chain: NMTTNERRVIVPADPTLWTQEHVRQWLEWAIKEYSLMEIDTSFFQNMDGKELCKMNKEDFLRATTLYNTEVLLSHLSYLRES

Variants of: B1
Assay: abundance fitness (aPCA) (normalised: wild type 0, dead -1); higher = more abundant; growth selection in yeast, the domain comes from the species named
Settings: Homo sapiens

Abundance fitness of substitutions, site by site:
L72: F -0.231 | Q -0.949 | W -1.1 | T -0.814 | A -0.463 | V -0.6 | M -0.099 | R -1.12 | K -1 | I 0.063 | C -0.372 | P -0.78 | G -1.01
E70: R -0.335 | N -0.124 | T -0.213 | H -0.001 | Q -0.078 | K -0.167 | W -0.944 | M -0.239 | L -0.507 | D 0.092 | S -0.107 | A -0.598 | P -0.859 | V -0.363 | I -0.726 | C -0.448
L61: V -0.13 | K -0.335 | C -0.396 | S -0.105 | F -0.307 | W -0.04 | D -0.449 | T -0.025 | H -0.36 | Q 0.009 | N -0.371 | E -0.16 | P -1.07 | A -0.13 | I -0.268 | G -0.236 | M -0.123
D59: E -0.184 | Q -0.087 | T -0.189 | C -0.046 | F -0.144 | S -0.126 | I -0.607 | R -0.327 | G -0.058 | W -0.106 | H -0.177 | M -0.17 | V -0.211 | K -0.052 | A -0.035 | Y -0.045 | P -0.882
T65: W -1.03 | Q -0.235 | G -0.058 | I -0.908 | P -0.085 | F -1.09 | H -0.283 | K -0.47 | C -0.028 | N -0.042 | V -0.966 | A -0.424 | L -0.615 | R -0.372 | S -0.011 | D -0.162
N56: S -0.043 | Q -0.043 | V -0.054 | W -0.221 | H 0.12 | D -0.033 | C -0.157 | I -0.247 | P -0.155 | Y -0.54 | L -0.129 | G 0.049 | M -0.002 | E 0.178 | R -0.226 | A -0.091 | K 0.125 | F -0.515
K54: N 0.02 | T -0.204 | W -0.396 | P -0.687 | M 0.021 | H -0.494 | G -0.015 | V -0.14 | E 0.1 | Y -0.359 | R -0.063 | L -0.017 | D 0.098 | S -0.01 | Q -0.057
N68: C -0.292 | T -0.146 | R -0.547 | L -0.859 | F -1.02 | W -0.911 | Q -0.167 | V -0.376 | S -0.083 | Y -0.797 | D 0.156 | A -0.233 | E -0.022 | K -0.898 | G -0.125
L66: Y -0.036 | K -0.038 | T -0.089 | P -0.015 | G -0.108 | S 0.013 | C -0.039 | E 0.016 | F -0.574 | V 0.045 | H 0.008 | A -0.021 | Q -0.066 | W 0.009 | I 0.085
E58: W -0.153 | M -0.19 | C -0.11 | V -0.17 | P 0.01 | Y 0.015 | K -0.162 | L -0.117 | F -0.228 | G 0.028 | A 0.119 | N 0.048 | R -0.032 | T -0.053
A63: R -0.041 | K -0.089 | W 0.002 | F -0.123 | N 0.36 | T -0.106 | E -0.213 | G 0.018 | M 0.024 | Y 0.085 | P -0.954 | D 0.012 | V 0.003 | L 0.022 | H -0.161
V71: S -0.147 | N -0.391 | E -0.368 | Y -0.239 | L -0.093 | A -0.006 | W -0.047 | I 0.263 | R 0.02 | G -0.677 | C 0.094 | P -0.401 | F -0.215 | Q -0.035 | K 0.051 | M -0.065 | T -0.145
T69: F -0.799 | Q -0.744 | C -0.214 | M -0.444 | G -0.184 | L -0.561 | K -0.816 | Y -0.295 | A 0.084 | S -0.028 | E -0.673
T64: R -0.807 | I -0.793 | L -0.262 | N -0.531 | K -0.796 | W -0.537 | E -0.792 | Q -0.1 | G -0.126 | M -0.02 | A -0.404 | C -0.505 | S -0.613 | P -0.704
R62: E -0.01 | V 0.066 | N -0.021 | S 0.017 | Q 0.071 | L 0.007 | P -0.213 | C -0.23 | W -0.325 | F -0.327 | I -0.728 | A -0.159 | G -0.016 | T -0.117 | D -0.4 | K 0.087 | H -0.073
K57: E -0.135 | D -0.312 | M 0.008 | S -0.319 | H -0.52 | R -0.052 | Q 0.043 | C -0.212 | Y -0.145 | T -0.086 | F -0.451 | N -0.071 | V -0.013 | G -0.433 | A -0.268 | L -0.213 | W -0.124
L52: E -0.976 | F -0.072 | S -0.991 | I -0.608 | M -0.277 | A -0.602 | G -0.915 | T -0.928 | C -0.692 | P -0.627 | R -1.03 | W -0.943 | V -0.192
L73: H -0.173 | M -0.061 | G -0.27 | K -0.199 | A -0.133 | F -0.1 | I -0.21 | E -0.343 | C -0.057
Y67: P -0.008 | S 0.074 | F -0.219 | D -0.027 | G 0.017 | L -0.125 | Q 0.059 | V 0.064 | A -0.051 | W -0.153 | M -0.111 | T -0.006 | C -0.058 | R 0.079 | K -0.045 | N -0.014 | E 0.212 | H 0.085
M55: Y -0.273 | T -0.204 | K 0.021 | W -0.04 | S -0.424 | C 0.007 | R -0.444 | G -0.75 | Q -0.158 | L 0.011 | A -0.119 | I -0.381 | P -0.784 | E -0.805 | N -0.752 | V -0.331
C53: R -0.72 | T -0.048 | F 0.031 | N -0.197 | V -0.017 | P -0.905 | E -0.409 | W -0.463 | S -0.213 | L 0.153 | Q -0.099 | A -0.222 | Y -0.377 | K -0.553 | M -0.134 | H -0.324 | G -0.142
F60: A -0.75 | S -0.881 | L -0.116 | Q -0.938 | V -0.433 | R -1 | T -0.918 | M -0.277 | W -0.114 | Y 0.152 | C -0.545 | G -1.1 | K -0.801 | P -0.921
